The source of these data is paper doi:10.1101/2022.07.22.501112, “An unexpected histone chaperone function for the MIER1 histone deacetylase complex” (bioRxiv, 2022).

Numbered stars: 1 amine (or outer) side, 2 acyl side, 3 side chain; on linkers, the order of the positions; unused ones are H or OH. Square brackets hold non-standard residues; d marks the D form. Ends that are not written are not given here. Lys(Me3) = C[N+](C)(C)CCCC[C@H](N)C(=O)O; Ethylenediamine = C(CN[*:2])N[*:1]; 5‑FAM = fluorescent label

In assay [1] the target is T1, E. coli expressed BAHD1(aa:588-780) (UniProt Q8TBE0 588-780).
T1 construct: BAHD1, BAH domain, residues 588-780; also called BAH domain of BAHD1; source: E. coli expressed
T1 sequence (looked up): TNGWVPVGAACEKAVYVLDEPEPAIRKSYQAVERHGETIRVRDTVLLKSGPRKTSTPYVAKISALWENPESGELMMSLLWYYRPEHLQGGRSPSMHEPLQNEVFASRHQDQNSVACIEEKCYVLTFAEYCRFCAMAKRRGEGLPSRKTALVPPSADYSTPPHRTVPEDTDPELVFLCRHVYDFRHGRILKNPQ
The assay is described as follows: fluorescence polarisation; 5 nM 5-FAM labelled histone peptide, BAHD1(aa:588-780) 0-142 uM, 25 mM Tris/Cl pH 7.5, 50 mM NaCl, 15 mins at 37 C; one-site binding model. Particulars: both partners purified.

The target in assay [2] is T2, Full length HDAC1(aa:1-482) (UniProt Q13547 1-482).
T2 construct: also called histone deacetylase 1
As to the kind of experiment: co-IP + SEC; FLAG-tagged MIER1 construct co-expressed with untagged HDAC1 in HEK293F; anti-FLAG M2 resin, TEV cleavage, Superdex S200 in 25 mM Tris/HCl pH 7.5, 50 mM potassium acetate, 0.5 mM TCEP; SDS-PAGE, bands identified by MS. The note with it: partners not purified.

T2 sequence (Q13547 whole entry): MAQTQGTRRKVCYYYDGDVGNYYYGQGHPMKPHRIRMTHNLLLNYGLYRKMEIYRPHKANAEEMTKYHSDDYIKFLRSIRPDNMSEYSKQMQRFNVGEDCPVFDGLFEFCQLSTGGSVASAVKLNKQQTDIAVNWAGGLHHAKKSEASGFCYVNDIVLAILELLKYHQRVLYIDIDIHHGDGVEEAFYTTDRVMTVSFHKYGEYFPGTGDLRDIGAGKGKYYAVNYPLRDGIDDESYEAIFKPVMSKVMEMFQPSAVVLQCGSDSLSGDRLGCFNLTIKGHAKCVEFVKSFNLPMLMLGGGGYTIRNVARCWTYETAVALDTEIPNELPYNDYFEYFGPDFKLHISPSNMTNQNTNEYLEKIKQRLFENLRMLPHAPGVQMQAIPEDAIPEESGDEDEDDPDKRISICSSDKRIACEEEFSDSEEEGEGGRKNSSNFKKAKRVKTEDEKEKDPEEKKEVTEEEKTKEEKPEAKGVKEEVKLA

B1: H3 16-35 K27me3 peptide (peptide)
peptide: PRKQLATKAAR[Lys(Me3)]SAPATGG-{Ethylenediamine-4‑Abu-5‑FAM}
notes: The twelfth letter (K27) is trimethyl-lysine; also called H3 histone tail bearing a K27me3 modification; source: synthetic peptide, bought: Cambridge Research Biochemicals
With B1, the binding result in assay [1] is given as “binds”.

B2: FLAG-tagged MIER1(aa:171-350), ELM2-SANT domain (domain or fragment, human, UniProt Q8N108 171-350, looked up)
chain: DYIPSEDWKKEIMVGSMFQAEIPVGICRYKENEKVYENDDQLLWDPEYLPEDKVIIFLKDASRRTGDEKGVEAIPEGSHIKDNEQALYELVKCNFDTEEALRRLRFNVKAAREELSVWTEEECRNFEQGLKAYGKDFHLIQANKVRTRSVGECVAFYYMWKKSERYDFFAQQTRFGKKKY
notes: Captured on anti-FLAG resin by the tag; the tag was then cut off by TEV protease before gel filtration and SEC-MALS (21 kDa counted for the fragment); also called MIER ELM2-SANT; source: HEK293F, co-transfected with HDAC1; anti-FLAG resin, TEV cleavage, Superdex S200; not shown: 10xHis-3xFLAG, N-terminal, kept
Regarding B2, the binding result in assay [2] is given as “binds”.
